Results: patent US20160122387A1, “Angiotensin Peptide and Pharmaceutical Compositions for Disease Treatment” (UNIVERSIDADE FEDERAL DE MINAS GERAIS - UFMG, priority 2012, published 2016)
Square brackets hold non-standard residues; d marks the D form. Ends that are not written are not given here.

Columns and labels:
[1] = target: rat receptor Mas (rat) (UniProt P12526); assay: cell-based or functional assay
[2] = target: T1, Mas receptor (Rattus norvegicus, UniProt P12526); assay: Vasorelaxation in SHR mesenteric rings in the presence of Mas receptor antagonist A-779
T1 construct: from tissue; host or cells: SHR rat thoracic aorta rings and mesenteric artery rings
T1 sequence (P12526 1-324): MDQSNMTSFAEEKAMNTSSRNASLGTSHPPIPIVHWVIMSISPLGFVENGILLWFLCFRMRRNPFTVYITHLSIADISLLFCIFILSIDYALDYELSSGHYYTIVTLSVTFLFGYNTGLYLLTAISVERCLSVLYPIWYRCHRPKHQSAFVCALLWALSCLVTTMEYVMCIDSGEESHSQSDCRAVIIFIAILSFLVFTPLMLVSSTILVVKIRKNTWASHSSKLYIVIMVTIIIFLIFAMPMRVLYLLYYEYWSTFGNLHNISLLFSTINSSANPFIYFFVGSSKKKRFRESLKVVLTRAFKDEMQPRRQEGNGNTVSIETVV
Procedure: Rings (2.0 mm) of mesenteric artery (2nd and/or 3rd branches) in spontaneously hypertensive rats (SHR), free from adipose and connective tissue, were maintained in a gasified solution (95% 02 and 5% CO2) of Krebs-Hanseleit, at 37° C. After a 15 minute stabilization period, the artery was stretched, gradually, to a resting tension considered optimal with respect to its inner diameter. For this, in each arterial segment, the voltage/diameter was calculated by internal circumference which corresponds to a transmural pressure of 100 mmHg for a relaxed vessel in situ (IC100) using software specific for standardization resistance arteries. For the experiments, the arteries were maintained with an internal circumference, IC1, calculated using the formula IC1=0.90×IC100, in which the development of strength is maximum, as previously described by Mulvany and Halpern (1977). The effective luminal diameter was determined according to the I1=IC1/π equation. […]
The presence of functional endothelium was assessed by the ability of acetylcholine [ACh] […] The mechanical activity was recorded isometrically using a myograph, which was connected to a system for data acquisition and to a computer.
The SHR vessels were pre-contracted with sub-maximal concentrations of phenylephrine (0.1 μmol/L). […] The result was expressed as a percentage of decrease in peak concentration induced by phenylephrine. […]

[3] = target: T1, Mas receptor; assay: Vasorelaxation in SHR aortic rings in the presence of Mas receptor antagonists A-779 and D-Pro
Procedure: Three- to four-mm rings of the descending thoracic aorta in spontaneously hypertensive rats (SHR), free from adipose and connective tissue, were maintained in a gasified solution (95% 02 and 5% CO2) of Krebs-Henseleit, at 37° C. under a tension of 1.0 g for 1 hour for stabilization. The presence of functional endothelium was assessed by the ability of acetylcholine [ACh] (10 μmol/L) to induce more than 70% relaxation of vessels pre-contracted with phenylephrine (0.1 μmol/L). The mechanical activity, recorded isometrically by a force transducer, was fed into a recorder-amplifier and a computer equipped with an analog-digital converter board, using CVMS data acquisition/recording software.
The SHR vessels were pre-contracted to the same voltage level (approximately 1.0 g tension) at the submaximal concentration of phenylephrine (0.1 μmol/L). Mas receptor antagonists, A-779 and D-Pro, were added to […] immediately before adding the arg0-Ang-(1-7) in increasing cumulative concentrations. Results are presented as mean±SEM. One-way analysis of variance (ANOVA) with the Newman-Keuls post-test for multiple comparisons was used to compare the concentration response curves obtained in the aortic rings. The result was expressed as the percentage of decrease in peak concentration induced by phenylephrine. All statistical analyses were considered significant when p<0.05.

Emax of vasorelaxation by arg0-Ang-(1-7) in SHR mesenteric artery rings in the presence of A-779 [1] | Emax of vasorelaxation by arg0-Ang-(1-7) in SHR rat aortic rings in the presence of A-779 [1] | Emax of vasorelaxation by arg0-Ang-(1-7) in SHR rat aortic rings in the presence of D-Pro [1] | Substance | antagonist effect on the vasorelaxation produced by arg0-Ang-(1-7) [2] | antagonist effect on the vasorelaxation produced by arg0-Ang-(1-7) [3]
14.1% | 14% | 11% | arg0-angiotensin-(1-7) (peptide) | – | –
– | – | – | Asp-Arg-Val-Tyr-Ile-His-D-Ala (DRVYIH[dA]) [A-779] | blocked the vasorelaxant effect of the peptide | blocked the vasorelaxant effect of the peptide
